Laboratory results: patent US20170037117A1, “COMPOSITIONS AND METHODS FOR TREATING METABOLIC DISORDERS” (Salk Institute for Biological Studies, priority 2014, published 2017)

Molecular target: T1, human α-CGRP (Homo sapiens, UniProt P06881)
T1 construct: 1-37 (WT); purchased GenScript Corporation or Global Peptide Services
T1 sequence (P06881 83-119 limits assumed): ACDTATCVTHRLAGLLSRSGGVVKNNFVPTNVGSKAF
Assay: Biacore affinity of G1 Fab and variants to human α-CGRP
Type: binding
Conditions: 37° C.; Fab fragments; screening mode except underlined values (G1 high-resolution mode)
Procedure: Biacore assay for affinity determination. […] All Biacore assays were conducted in HBS-EP running buffer (10 mM HEPES pH 7.4, 150 mM NaCl, 3 mM EDTA, 0.005% v/v polysorbate P20). CGRP surfaces were prepared by diluting the N-biotinylated CGRP to a concentration of less than 0.001 mg/mL into HBS-EP buffer and injecting it across the SA sensor chip using variable contact times. Low capacity surfaces, corresponding to capture levels <50 response units (RU) were used for high-resolution kinetic studies, whereas high capacity surfaces (about 800 RU of captured CGRP) were used for concentration studies, screening, and solution affinity determinations. […] Samples were typically injected for 1 minute at 100 μL/min and dissociation times of at least 10 minutes were allowed. After each binding cycle, surfaces were regenerated with 25 mM NaOH in 25% v/v ethanol, which was tolerated over hundreds of cycles. […]
High-resolution analysis of binding interactions with extremely slow offrates. […] The association rate constant (kon) was determined by injecting a 2-fold titration series (in duplicate) spanning 550 nM-1 nM for 30 sec at 100 uL/min and allowing only a 30 sec dissociation phase. The dissociation rate constant (koff) was determined by injecting three concentrations (high, medium, and low) of the same titration series in duplicate for 30 sec and allowing a 2-hour dissociation phase. […]

α-human koff: 0.00014 s⁻¹
B1: M25: G1 variant: L1 R28N; HC-FW3 L99T A100V (antibody, V domains shown)
VH: EVQLVESGGGLVQPGGSLRLSCAASGFTFSNYWISWVRQAPGKGLEWVAEIRSESDASATHYAEAVKGRFTISRDNAKNSLYLQMNSLRAEDTAVYYCTVYFDYGLAIQNYWGQGTLVTVSS
VL: EIVLTQSPATLSLSPGERATLSCKASKNVTTYVSWYQQKPGQAPRLLIYGASNRYLGIPARFSGSGSGTDFTLTISSLEPEDFAVYYCSQSYNYPYTFGQGTKLEIK
